Experimental findings from the RNAGym collection of RNA variant scans (doi:10.7554/elife.90254) are described below.

The chains are these.
B1: LINE1-full (parent)
chain: UACGUAGGUGGUUUUCCCCUGAUAGUGCUAAGGGGGCCUGGAAGUUUGGACUGGGCAGAGCUCAACACAGCGUGGCAAAGUGGCUGUGGCUAGACUGCCUCUCUGGAUUCCUCGUCACUCAGCAGGGCAUCUCUGAGAGAAAUGCC

In the data set the parent is B1. The data set can be described thus: self-cleavage, relative activity (ratio to wild type); higher = more cleavage; in vitro, sequencing; the parent is a self-cleaving ribozyme.
As for UACGUAGGUGGUUUUCCCCUGAUAGUGCUAAGGGGGCCUGGAAGUUUGGACUGGGCAGAGCUCAACACAGCGUGGCAAAGUGGCGGUGGCUAGACUGCCUCUCCGGAUUCCUCGUCACUCAGCAGGGCAUCUCUGAGAGAAAUGCC, the self-cleavage was determined as 0.

With UACGUAGGUGGUUUUCCCCUGAUAGUGCUAAGGGGGCCUGGAAGUUUGGACUGGGCAGAGCUCAACACAGCGUGGCAAAGUGGCGGUGGCUAGACUGCCUCUCUGGAUUCCUCGUCAUUCAGCAGGGCAUCUCUGAGAGAAAUGCC, the self-cleavage is 0.14.

Consider UACGUAGGUGGUUUUCCCCUGAUAGUGCUAAGGGGGCCUGGAAGUUUGGACUGGGCAGAGCUCAACACAGCGUGGCAAAGUGGCCGUGGCAAGACUGCCUCUCUGGAUUCCUCGUCACUCAGCAGGGCAUCUCUGAGAGAAAUGCC, for which the self-cleavage was 0.14.

For the variant UACGUAGGUGGUUUUCCCCUGAUAGUGCUAAGGGGGCCUGGAAGUUUGGACUGGGCAGAGCUCAACACAGCGUGGCAAAGUGGCCGUGGCUAGACUGCCUCUCUGGAUGCCUCGUCACUCAGCAGGGCAUCUCUGAGAGAAAUGCC, the self-cleavage worked out at 0.

For the variant UACGUAGGUGGUUUUCCCCUGAUAGUGCUAAGGGGGCCUGGAAGUUUGGACUGGGCAGAGCUCAACACAGCGUGGCAAAGUGGCGGUGGCUAGACUGCCUCUCUGGAUUCCUCGUCACUCAGCAGGGCACCUCUGAGAGAAAUGCC, the self-cleavage turned out to be 0.24.

As for UACGUAGGUGGUUUUCCCCUGAUAGUGCUAAGGGGGCCUGGAAGUUUGGACUGGGCAGAGCUCAACACAGCGUGGCAAAGUGGCUAUGGCUGGACUGCCUCUCUGGAUUCCUCGUCACUCAGCAGGGCAUCUCUGAGAGAAAUGCC, the self-cleavage amounted to 0.02.

For the variant UACGUAGGUGGUUUUCCCCUGAUAGUGCUAAGGGGGCCUGGAAGUUUGGACUGGGCAGAGCUCAACACAGCGUGGCAAAGUGGCGGUGGCUAGACUGCCUCUCUGGAUUCCACGUCACUCAGCAGGGCAUCUCUGAGAGAAAUGCC, the self-cleavage stood at 0.26.

As for UACGUAGGUGGUUUUCCCCUGAUAGUGCUAAGGGGGCCUGGAAGUUUGGACUGGGCAGAGCUCAACACAGCGUGGCAAAGUGGCGGUGGCUAGACUGCCUCUCUGGAUUCCUCGUCACUCAGCAGGGCAUCUCUGAGAGAAGUGCC, the self-cleavage amounted to 0.1.

As to UACGUAGGUGGUUUUCCCCUGAUAGUGCUAAGGGGGCCUGGAAGUUUGGACUGGGCAGAGCUCAACACAGCGUGGCAAAGUGGCGGUGGCUAGACUGCCUCUCUGGAUUCCUCGUCACACAGCAGGGCAUCUCUGAGAGAAAUGCC, the self-cleavage came to 0.19.

In the case of UACGUAGGUGGUUUUCCCCUGAUAGUGCUAAGGGGGCCUGGAAGUUUGGACUGGGCAGAGCUCAACACAGCGUGGCAAAGUGGCGGUGGCUAGACUGCCUCUCUGGAUUCCUCGUCACUCAGCGGGGCAUCUCUGAGAGAAAUGCC, the self-cleavage was 0.32.

Turning to UACGUAGGUGGUUUUCCCCUGAUAGUGCUAAGGGGGCCUGGAAGUUUGGACUGGGCAGAGCUCAACACAGCGUGGCAAAGUGGCGGUGGCUAGACUGCCUCCCUGGAUUCCUCGUCACUCAGCAGGGCAUCUCUGAGAGAAAUGCC, the self-cleavage came out at 0.55.

UACGUAGGUGGUUUUCCCCUGAUAGUGCUAAGGGGGCCUGGAAGUUUGGACUGGGCAGAGCUCAACACAGCGUGGCAAAGUGGCGGUGGCUAGACUGCCUCUCUGGAUUCCUCGUCACUCAGCAGGGCAUCUCUGGGAGAAAUGCC: the self-cleavage was found to be 0.

As for UACGUAGGUGGUUUUCCCCUGAUAGUGCUAAGGGGGCCUGGAAGUUUGGACUGGGCAGAGCUCAACACAGCGUGGCAAAGUGGCGGUGGCUAGACUGCCUCUCUGGUUUCCUCGUCACUCAGCAGGGCAUCUCUGAGAGAAAUGCC, the self-cleavage was 0.27.

Turning to UACGUAGGUGGUUUUCCCCUGAUAGUGCUAAGGGGGCCUGGAAGUUUGGACUGGGCAGAGCUCAACACAGCGUGGCAAAGUGGCGGUGGCUAGACUGCCUCUCUGGGUUCCUCGUCACUCAGCAGGGCAUCUCUGAGAGAAAUGCC, the self-cleavage is 0.09.

Take UACGUAGGUGGUUUUCCCCUGAUAGUGCUAAGGGGGCCUGGAAGUUUGGACUGGGCAGAGCUCAACACAGCGUGGCAAAGUGGCCGUGGCUAGACUGCCUCUCUGGAUUCCUCGUCACCCAGCAGGGCAUCUCUGAGAGAAAUGCC: the self-cleavage turned out to be 0.28.

Consider UACGUAGGUGGUUUUCCCCUGAUAGUGCUAAGGGGGCCUGGAAGUUUGGACUGGGCAGAGCUCAACACAGCGUGGCAAAGUGGCCGUGGCUAGACUGCCUCUCUGGAUUCCUCGUCACACAGCAGGGCAUCUCUGAGAGAAAUGCC, for which the self-cleavage was 0.25.

As to UACGUAGGUGGUUUUCCCCUGAUAGUGCUAAGGGGGCCUGGAAGUUUGGACUGGGCAGAGCUCAACACAGCGUGGCAAAGUGGCCGUGGCUAGACUGCCUCUCUGGAUUCCUCGACACUCAGCAGGGCAUCUCUGAGAGAAAUGCC, the self-cleavage was found to be 0.19.

For the variant UACGUAGGUGGUUUUCCCCUGAUAGUGCUAAGGGGGCCUGGAAGUUUGGACUGGGCAGAGCUCAACACAGCGUGGCAAAGUGGCCGUGGCUAGACUGCCUCUCUGGAUUCCUCGUCACUCAGCAGGGCACCUCUGAGAGAAAUGCC, the self-cleavage stood at 0.23.

Turning to UACGUAGGUGGUUUUCCCCUGAUAGUGCUAAGGGGGCCUGGAAGUUUGGACUGGGCAGAGCUCAACACAGCGUGGCAAAGUGGCCGUGGCUAGACUGCCUCUCUGGAUUCCUCGUCACUCAGCAGGGCAACUCUGAGAGAAAUGCC, the self-cleavage was found to be 0.35.

Take UACGUAGGUGGUUUUCCCCUGAUAGUGCUAAGGGGGCCUGGAAGUUUGGACUGGGCAGAGCUCAACACAGCGUGGCAAAGUGGCCGUGGCUAGACUGCCUCUCUGGAAUCCUCGUCACUCAGCAGGGCAUCUCUGAGAGAAAUGCC: the self-cleavage is 0.28.

UACGUAGGUGGUUUUCCCCUGAUAGUGCUAAGGGGGCCUGGAAGUUUGGACUGGGCAGAGCUCAACACAGCGUGGCAAAGUGGCCGUGGCUAGACUGCCUCUCUGGAUUCCUCGUCACUCAGCAGGGCAUCUCGGAGAGAAAUGCC: the self-cleavage is 0.14.

Take UACGUAGGUGGUUUUCCCCUGAUAGUGCUAAGGGGGCCUGGAAGUUUGGACUGGGCAGAGCUCAACACAGCGUGGCAAAGUGGCCGUGGCUAGACUGCCUCUCUGGAUUCCUCGUCACUCAGCAGGGCAUCUCAGAGAGAAAUGCC: the self-cleavage came to 0.14.

For the variant UACGUAGGUGGUUUUCCCCUGAUAGUGCUAAGGGGGCCUGGAAGUUUGGACUGGGCAGAGCUCAACACAGCGUGGCAAAGUGGCCGUGGCUAGACUGCCUCUCUGGAUUCCUCGUCACUCAGCAGGGCAUCUCCGAGAGAAAUGCC, the self-cleavage worked out at 0.26.

Turning to UACGUAGGUGGUUUUCCCCUGAUAGUGCUAAGGGGGCCUGGAAGUUUGGACUGGGCAGAGCUCAACACAGCGUGGCAAAGUGGCCGUGGCUAGACUGCCUCUCUGGAUUCCUCGUCACUCAGCACGGCAUCUCUGAGAGAAAUGCC, the self-cleavage is 0.29.

Take UACGUAGGUGGUUUUCCCCUGAUAGUGCUAAGGGGGCCUGGAAGUUUGGACUGGGCAGAGCUCAACACAGCGUGGCAAAGUGGCCGUGGCUAGACUGCCUCUCUGGAUUCCUCGUCACUCAGCAUGGCAUCUCUGAGAGAAAUGCC: the self-cleavage worked out at 0.11.

Consider UACGUAGGUGGUUUUCCCCUGAUAGUGCUAAGGGGGCCUGGAAGUUUGGACUGGGCAGAGCUCAACACAGCGUGGCAAAGUGGCCGUGGCUAGACUGCCUCUCUGGAUUCCUCGUCACUCAGCAGGGCAUCUCUGAGAUAAAUGCC, for which the self-cleavage was determined as 0.22.

Regarding UACGUAGGUGGUUUUCCCCUGAUAGUGCUAAGGGGGCCUGGAAGUUUGGACUGGGCAGAGCUCAACACAGCGUGGCAAAGUGGCUAUGGCUAGACUGCCUCUCUGGAUUCCUCGUCGCUCAGCAGGGCAUCUCUGAGAGAAAUGCC, the self-cleavage was 0.09.

Take UACGUAGGUGGUUUUCCCCUGAUAGUGCUAAGGGGGCCUGGAAGUUUGGACUGGGCAGAGCUCAACACAGCGUGGCAAAGUGGCCGUGGCUAGACUGCCACUCUGGAUUCCUCGUCACUCAGCAGGGCAUCUCUGAGAGAAAUGCC: the self-cleavage was 0.

In the case of UACGUAGGUGGUUUUCCCCUGAUAGUGCUAAGGGGGCCUGGAAGUUUGGACUGGGCAGAGCUCAACACAGCGUGGCAAAGUGGCGGUGGCUAGACUGCCUCUCUGGAUUCCUAGUCACUCAGCAGGGCAUCUCUGAGAGAAAUGCC, the self-cleavage came out at 0.14.

For UACGUAGGUGGUUUUCCCCUGAUAGUGCUAAGGGGGCCUGGAAGUUUGGACUGGGCAGAGCUCAACACAGCGUGGCAAAGUGGCGGUGGCUAGACUGCCUCUCUGGAUUCCUCGUCACUCAGCAGGGCAUCUCUGAGAGAAAUACC, the self-cleavage was 0.21.

For UACGUAGGUGGUUUUCCCCUGAUAGUGCUAAGGGGGCCUGGAAGUUUGGACUGGGCAGAGCUCAACACAGCGUGGCAAAGUGGCCGUGGCUAGACUGCCUCUCUGGAUUCCUCGUCACUCAGCAGGCCAUCUCUGAGAGAAAUGCC, the self-cleavage is 0.24.

Take UACGUAGGUGGUUUUCCCCUGAUAGUGCUAAGGGGGCCUGGAAGUUUGGACUGGGCAGAGCUCAACACAGCGUGGCAAAGUGGCCGUGGCUAGACUGCCUCUCUGGAUUCCUCGUCACUCAGCAGGUCAUCUCUGAGAGAAAUGCC: the self-cleavage came out at 0.14.

As for UACGUAGGUGGUUUUCCCCUGAUAGUGCUAAGGGGGCCUGGAAGUUUGGACUGGGCAGAGCUCAACACAGCGUGGCAAAGUGGCGGUGGCUAGACUGCCUCUCUGGAUUCCUCGUCACUCAGCAGGGCAUCUCUGAGGGAAAUGCC, the self-cleavage is 0.22.

Regarding UACGUAGGUGGUUUUCCCCUGAUAGUGCUAAGGGGGCCUGGAAGUUUGGACUGGGCAGAGCUCAACACAGCGUGGCAAAGUGGCCGUGGCUAGACUGCCUCUCUGGAUUCCUCGUCACUCAGCAGGGCAUCUCUGAAAGAAAUGCC, the self-cleavage came to 0.2.

Consider UACGUAGGUGGUUUUCCCCUGAUAGUGCUAAGGGGGCCUGGAAGUUUGGACUGGGCAGAGCUCAACACAGCGUGGCAAAGUGGCGGUGGCUAGACUGCCUCUCUGGACUCCUCGUCACUCAGCAGGGCAUCUCUGAGAGAAAUGCC, for which the self-cleavage is 0.22.

For UACGUAGGUGGUUUUCCCCUGAUAGUGCUAAGGGGGCCUGGAAGUUUGGACUGGGCAGAGCUCAACACAGCGUGGCAAAGUGGCGGUGGCUAGACUGCCUCUCUGAAUUCCUCGUCACUCAGCAGGGCAUCUCUGAGAGAAAUGCC, the self-cleavage turned out to be 0.29.

For UACGUAGGUGGUUUUCCCCUGAUAGUGCUAAGGGGGCCUGGAAGUUUGGACUGGGCAGAGCUCAACACAGCGUGGCAAAGUGGCGGUGGCUAGACUGCCUCUCUGGAUUCCUCGUCACUCAGCAGGGCAUCUCUGAGAGAGAUGCC, the self-cleavage was 0.1.

Take UACGUAGGUGGUUUUCCCCUGAUAGUGCUAAGGGGGCCUGGAAGUUUGGACUGGGCAGAGCUCAACACAGCGUGGCAAAGUGGCCGUGGCUAGACUGCCUCACUGGAUUCCUCGUCACUCAGCAGGGCAUCUCUGAGAGAAAUGCC: the self-cleavage is 0.18.

UACGUAGGUGGUUUUCCCCUGAUAGUGCUAAGGGGGCCUGGAAGUUUGGACUGGGCAGAGCUCAACACAGCGUGGCAAAGUGGCCGUGGCUAGACUGCCUCGCUGGAUUCCUCGUCACUCAGCAGGGCAUCUCUGAGAGAAAUGCC: the self-cleavage came out at 0.22.
